B1: mAb G196 [mouse] / biotin-SGSGSDLVPRG [modified: biotin on the N-terminus; biotin on the N-terminus] (parent complex)
chain 1: QVKLQESGAELVKPGASVKLSCKASGYTFTNYWMHWVKLRPGQGFEWIGEINPSNGGSNYNEKFKRKATLTVDKSSSTAYMQLSSLTSEDSAVFYCSIWDSYFDYWGQGTTLTVSSAKTTPPSVYPLAPGSAAQTNSMVTLGCLVKGYFPEPVTVTWNSGSLSSGVHTFPAVLQSDLYTLSSSVTVPSSPWPSETVTCNVAHPASSTKVDKKIVPRDC
chain 2: NIVMTQSPKSMSMSVGERVTLTCKASENVVTYVSWYQQKPEQSPKLLIYGASNRYTGVPDRFTGSGSATDFTLTISSVQAEDLADYHCGQGYSYPYTFGGGTKLEIKRADAAPTVSIFPPSSEQLTSGGASVVCFLNNFYPKDINVKWKIDGSERQNGVLNSWTDQDSKDSTYSMSSTLTLTKDEYERHNSYTCEATHKTSTSPIVKSFNRNEC
chain 3: SGSGSDLVPRG

Variants of: B1
Test: permutation ELISA (densitometry of spots); parent: 1; read off a plot

Row | Variant | ratio to parent
1 | chain 3 R10H | ~0.38
2 | chain 3 V8R | ~0.07
3 | chain 3 V8Q | ~0.16
4 | chain 3 V8M | ~0.09
5 | chain 3 V8S | ~0.44
6 | chain 3 V8H | ~0.08
7 | chain 3 V8N | ~0.11
8 | chain 3 V8Y | ~0.05
9 | chain 3 V8T | ~0.95
10 | chain 3 V8A | ~0.82
11 | chain 3 V8C | ~0.08
12 | chain 3 V8L | ~0.13
13 | chain 3 V8G | ~0.03
14 | chain 3 V8W | ~0.03
15 | chain 3 V8E | ~0.07
16 | chain 3 V8P | ~0.04
17 | chain 3 V8I | ~0.96
18 | chain 3 V8F | ~0.04
19 | chain 3 V8D | ~0.03
20 | chain 3 V8K | ~0.05
21 | chain 3 D6K | ~0.05
22 | chain 3 D6T | ~0.19
23 | chain 3 D6P | ~0.16
24 | chain 3 D6H | ~0.15
25 | chain 3 D6W | ~0.12
26 | chain 3 D6F | ~0.09

Row | Variant | ratio to parent
27 | chain 3 D6G | ~0.7
28 | chain 3 D6M | ~0.11
29 | chain 3 D6Q | ~0.48
30 | chain 3 D6Y | ~0.11
31 | chain 3 D6N | ~0.25
32 | chain 3 D6E | ~1
33 | chain 3 D6R | ~0.07
34 | chain 3 D6S | ~0.95
35 | chain 3 D6A | ~0.38
36 | chain 3 D6C | ~0.26
37 | chain 3 D6I | ~0.08
38 | chain 3 D6V | ~0.04
39 | chain 3 D6L | ~0.06
40 | chain 3 P9M | ~0.82
41 | chain 3 P9G | ~0.67
42 | chain 3 P9A | ~0.98
43 | chain 3 P9D | ~0.78
44 | chain 3 P9I | ~0.85
45 | chain 3 P9T | ~0.59
46 | chain 3 P9C | ~0.78
47 | chain 3 P9E | ~0.86
48 | chain 3 P9K | ~0.4
49 | chain 3 P9L | ~0.72
50 | chain 3 P9Q | ~0.72
51 | chain 3 P9W | ~0.82
52 | chain 3 P9F | ~0.86

Row | Variant | ratio to parent
53 | chain 3 P9H | ~0.74
54 | chain 3 P9R | ~0.74
55 | chain 3 P9V | ~0.87
56 | chain 3 P9S | ~0.81
57 | chain 3 P9N | ~0.76
58 | chain 3 P9Y | ~0.89
59 | chain 3 L7S | ~0.06
60 | chain 3 L7E | ~0.08
61 | chain 3 L7H | ~0.62
62 | chain 3 L7C | ~0.06
63 | chain 3 L7I | ~0.99
64 | chain 3 L7T | ~0.11
65 | chain 3 L7W | ~0.05
66 | chain 3 L7P | ~0.02
67 | chain 3 L7Q | ~0.07
68 | chain 3 L7Y | ~0.15
69 | chain 3 L7M | ~0.84
70 | chain 3 L7K | ~0.1
71 | chain 3 L7R | ~0.13
72 | chain 3 L7V | ~0.11
73 | chain 3 L7D | ~0.11
74 | chain 3 L7F | ~0.72
75 | chain 3 L7A | ~0.08
76 | chain 3 L7N | ~0.6
77 | chain 3 L7G | ~0.04

— paper PMC5339894, “G196 epitope tag system: a novel monoclonal antibody, G196, recognizes the small, soluble peptide DLVPR with high affinity” (Scientific Reports, 2017)
